We go through 4 substances from IntAct's records for PubMed 28258151.

The target of this experiment is cfah_human CFH (UniProt P08603).
Chain of cfah_human CFH (P08603 whole entry): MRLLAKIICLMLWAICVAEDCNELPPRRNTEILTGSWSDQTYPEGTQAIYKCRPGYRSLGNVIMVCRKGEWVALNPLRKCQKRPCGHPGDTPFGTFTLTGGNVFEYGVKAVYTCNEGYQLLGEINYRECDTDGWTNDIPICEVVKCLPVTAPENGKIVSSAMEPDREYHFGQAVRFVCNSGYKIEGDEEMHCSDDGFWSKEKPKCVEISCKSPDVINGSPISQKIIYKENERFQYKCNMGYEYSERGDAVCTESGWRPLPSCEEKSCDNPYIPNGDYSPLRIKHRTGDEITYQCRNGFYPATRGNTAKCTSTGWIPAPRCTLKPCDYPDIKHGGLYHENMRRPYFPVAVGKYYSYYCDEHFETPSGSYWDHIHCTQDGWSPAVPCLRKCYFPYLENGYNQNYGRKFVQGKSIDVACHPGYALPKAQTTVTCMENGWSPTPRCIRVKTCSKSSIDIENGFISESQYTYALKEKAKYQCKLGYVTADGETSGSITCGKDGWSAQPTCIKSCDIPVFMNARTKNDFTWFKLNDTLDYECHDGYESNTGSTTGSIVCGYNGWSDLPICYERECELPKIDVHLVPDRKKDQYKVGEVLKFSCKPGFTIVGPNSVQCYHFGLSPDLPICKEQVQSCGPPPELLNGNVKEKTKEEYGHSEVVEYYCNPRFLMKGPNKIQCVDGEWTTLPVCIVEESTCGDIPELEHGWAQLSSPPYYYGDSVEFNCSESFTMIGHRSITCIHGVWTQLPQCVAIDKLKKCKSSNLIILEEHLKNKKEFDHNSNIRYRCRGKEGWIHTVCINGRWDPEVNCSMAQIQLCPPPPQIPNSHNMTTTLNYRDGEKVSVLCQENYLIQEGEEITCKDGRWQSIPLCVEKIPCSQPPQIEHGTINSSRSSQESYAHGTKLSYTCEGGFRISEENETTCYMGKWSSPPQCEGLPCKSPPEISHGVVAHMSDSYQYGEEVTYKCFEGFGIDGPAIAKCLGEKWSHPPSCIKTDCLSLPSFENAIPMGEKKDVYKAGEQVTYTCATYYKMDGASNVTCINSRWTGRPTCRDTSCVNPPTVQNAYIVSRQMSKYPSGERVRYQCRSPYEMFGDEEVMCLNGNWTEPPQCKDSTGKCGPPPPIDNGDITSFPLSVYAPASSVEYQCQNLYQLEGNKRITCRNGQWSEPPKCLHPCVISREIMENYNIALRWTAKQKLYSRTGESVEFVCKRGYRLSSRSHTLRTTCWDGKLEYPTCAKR

For “Serine-aspartate repeat-containing protein E (Staphylococcus aureus (strain Mu50 / ATCC 700699)), Q932F7 D334A”, the “effect of a mutation on the interaction” value is on record as “decreasing interaction”.
With “Serine-aspartate repeat-containing protein E (Staphylococcus aureus (strain Mu50 / ATCC 700699)), Q932F7 D588A” the entry was “disrupting interaction”.
With “Serine-aspartate repeat-containing protein E (Staphylococcus aureus (strain Mu50 / ATCC 700699)), Q932F7 L335A” the entry was “decreasing interaction”.
Under “Serine-aspartate repeat-containing protein E (Staphylococcus aureus (strain Mu50 / ATCC 700699)), Q932F7 Q419A” stands “decreasing interaction”.
